The values that follow come from the RNAGym collection of RNA variant scans (doi:10.7554/elife.80360).

The chains are these.
B1: CPEB3 Ribozyme (parent)
chain: GGGGGCCACAGCAGAAGCGUUCACGUCGCGGCCCCUGUCAGAUUCUGGUGAAUCUGCGAAUUCUGCUGU

This data set covers variants of B1. The experiment in a line: self-cleavage, relative activity (ratio to wild type); higher = more cleavage; co-transcriptional.
Turning to U21A C45A, the self-cleavage was 1.01.
Regarding U20G U21A, the self-cleavage came out at 0.252.
Then U20G U21G, with 0.148.
Regarding U21A C63G, the self-cleavage turned out to be 0.727.
Then U21A C63U, with 0.921; and U21A C63A, with 0.795; and U21C G48C, with 0.967.
Regarding U21C G48U, the self-cleavage came out at 0.901.
Turning to U21C C24U, the self-cleavage worked out at 0.429.
Then U21C C24G, with 0.223.
For the variant U21C A40C, the self-cleavage worked out at 0.372.
Take U21C A40U: the self-cleavage is 0.642.
U21C A40G: the self-cleavage was 0.719.
In the case of U21A A51C, the self-cleavage stood at 0.953.
As for U21A A51U, the self-cleavage stood at 0.952.
Then U21A A51G, with 1.01; and U21G C54U, with 0.591.
The value for U21G C54G was 0.423; that for U21C G25A was 0.121; that for U21C G25U was 0.13.
Turning to U21C G25C, the self-cleavage was determined as 0.118.
The value for U20G U67G was 0.152.
The value for U21G A51G was 0.54; that for U21G A51C was 0.509.
The value for U21G A51U was 0.497.
As for U21A G56U, the self-cleavage came out at 0.936.
For U21A G56C, the self-cleavage was determined as 0.755.
For the variant U21A G56A, the self-cleavage turned out to be 0.954.
Then U21G C34A, with 0.218.
Then U20G U43A, with 0.0656.
The value for U20G U43C was 0.182.
Consider U20G U55G, for which the self-cleavage turned out to be 0.106.
Then U20G U55A, with 0.139; and U20G U55C, with 0.148.
As to U21C C35U, the self-cleavage stood at 0.716.
Consider U21C C35G, for which the self-cleavage is 0.206.
Turning to U21G C24U, the self-cleavage came to 0.103.
Turning to U21G C24A, the self-cleavage was 0.106.
Take U21C C32A: the self-cleavage was determined as 0.741.
The value for U21C C32G was 0.226.
As to U21C C32U, the self-cleavage was 0.918.
Regarding U21A C34U, the self-cleavage stood at 0.995.
In the case of U21A C34A, the self-cleavage came out at 0.708.
The value for U21G C32G was 0.189.
The value for U21G C32A was 0.246.
Then U21G C32U, with 0.609; and U21A G47A, with 0.969.
For the variant U21A G47C, the self-cleavage came to 0.988.
Consider U21A G47U, for which the self-cleavage was 0.992.
Regarding U20G G65U, the self-cleavage came to 0.262.
Consider U20G G65A, for which the self-cleavage stood at 0.155.
The value for U21C A52C was 0.854.
Then U21C C57A, with 0.252; and U21C C57U, with 0.379.
Then U20G U26C, with 0.114; and U21A U44C, with 0.817.
Take U21A U44G: the self-cleavage is 0.952.
Then U21A U44A, with 0.901; and U20G U69C, with 0.281; and U20G U69G, with 0.322.
Then U20G G58U, with 0.213; and U20G G58A, with 0.251.
The value for U21C was 0.92.
As to U21G, the self-cleavage is 0.644.
Take U21A: the self-cleavage amounted to 0.979.
As for U20G U36A, the self-cleavage was 0.13.
Then U20G U36C, with 0.0978.
Then U21A U67C, with 0.951.
Consider U21A U67A, for which the self-cleavage turned out to be 0.992.
For the variant U21G U44A, the self-cleavage stood at 0.498.
Regarding U21G U44C, the self-cleavage was found to be 0.444.
The value for U21G U44G was 0.386; that for U21A G65C was 0.6; that for U21C U36C was 0.479.
The value for U21C U36G was 0.286; that for U21C U36A was 0.0993.
Turning to U21C C29U, the self-cleavage worked out at 0.217.
As to U21C C29G, the self-cleavage stood at 0.247.
For the variant U21G C22G, the self-cleavage amounted to 0.227.
In the case of U21G C22U, the self-cleavage was found to be 0.181.
The value for U21G C22A was 0.2; that for U21A C33A was 0.808.
Then U21A C33U, with 1; and U21A C33G, with 0.536.
The value for U21A U26G was 0.869.
For the variant U21A U26C, the self-cleavage turned out to be 0.985.
Take U21A U26A: the self-cleavage is 0.796.
For the variant U21C U49C, the self-cleavage is 0.868.
For U21C U49G, the self-cleavage worked out at 0.927.
Then U21C U49A, with 0.847; and U21C C45U, with 0.88.
The value for U21C C45A was 0.87.
Take U21C U38G: the self-cleavage was 0.432.
Then U21C U38A, with 0.171; and U21C U38C, with 0.808; and U20G G68C, with 0.275.
Turning to U20G G68A, the self-cleavage was determined as 0.235.
For U21C U69C, the self-cleavage came to 1.05.
Regarding U21A C29G, the self-cleavage stood at 0.445.
Consider U21A C29U, for which the self-cleavage was 0.413.
Then U21A G31A, with 0.803; and U21A G31U, with 0.595; and U21A C27A, with 0.447.
Then U21A C27U, with 0.162.
U21G A42C: the self-cleavage came to 0.303.
Then U21G A42U, with 0.503; and U21C U46A, with 0.88; and U21C U46G, with 0.991.
Regarding U21C U67A, the self-cleavage was 0.921.
The value for U21C U67C was 0.898.
The value for U21A G25U was 0.136.
Then U21A G25A, with 0.244; and U21A G25C, with 0.249.
Take U20G U38C: the self-cleavage came to 0.185.
For U20G U38A, the self-cleavage was 0.288.
Then U21G U43A, with 0.235; and U21G U43C, with 0.428.
The value for U21G U43G was 0.324; that for U21A C39U was 0.928; that for U21A C39G was 0.981.
Then U21G G68A, with 0.794; and U21C C63A, with 0.47.
On to U21C C63G, for which the self-cleavage stood at 0.635.
Turning to U21C C63U, the self-cleavage came to 0.804.
The value for U21C U26G was 0.459; that for U21C U26C was 0.805.
Then U21C A42G, with 0.749; and U21C A42U, with 0.891.
The value for U21C A51U was 0.861; that for U21C A51C was 0.913.
With U21A U61G, the self-cleavage amounted to 0.94.
Regarding U21A U61A, the self-cleavage is 0.907.
The value for U21C C27U was 0.138.
With U21C C27A, the self-cleavage amounted to 0.344.
The value for U20G U62G was 0.292.
As for U20G U62A, the self-cleavage was 0.183.
The value for U21C G28C was 0.0853.
Consider U21C G28U, for which the self-cleavage turned out to be 0.105.
The value for U21C C33U was 0.919.
Then U21A G50C, with 0.924; and U21A G50A, with 0.989; and U21G C33U, with 0.575.
As to U21G C33G, the self-cleavage was 0.215.
Then U21G C33A, with 0.163.
The value for U21G A60G was 0.251; that for U21G A60U was 0.295; that for U21G A52G was 0.615.
The value for U21G A52U was 0.608.
For U21C A59G, the self-cleavage is 0.928.
The value for U21C A59U was 0.581; that for U21A U49G was 0.95.
The value for U21A U49A was 0.96.
U21A U49C: the self-cleavage was determined as 0.972.
As for U20G U49C, the self-cleavage is 0.173.
Then U20G U49G, with 0.27; and U20G U49A, with 0.26; and U21C G50C, with 0.849.
Then U21C G50A, with 0.949.
The value for U21C G50U was 0.878; that for U21C G30C was 0.235.
On to U21C G30A, for which the self-cleavage amounted to 0.522.
With U21C G30U, the self-cleavage stood at 0.268.
The value for U21G U53C was 0.354; that for U21G U53G was 0.376; that for U21A C57G was 0.361.
Regarding U21A C57U, the self-cleavage amounted to 0.447.
Take U21A C57A: the self-cleavage came out at 0.268.
